For two sequences, binding results are on record in publication PMC10667646.

The series has as its target T1, His-Lmo2795 (RpiR-family transcriptional regulator) (Listeria monocytogenes) (UniProt Q8Y3P0).
T1 sequence: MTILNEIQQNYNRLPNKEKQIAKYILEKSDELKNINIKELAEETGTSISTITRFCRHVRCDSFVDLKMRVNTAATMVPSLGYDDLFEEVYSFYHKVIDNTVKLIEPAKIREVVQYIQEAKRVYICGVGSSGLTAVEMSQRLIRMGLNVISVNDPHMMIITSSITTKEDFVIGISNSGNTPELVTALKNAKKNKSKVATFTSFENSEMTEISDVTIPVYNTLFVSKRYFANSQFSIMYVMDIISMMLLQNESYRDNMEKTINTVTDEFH
Briefly: EMSA. Conditions: 10 mM Tris-HCl pH 7.5, 50 mM NaCl, 10% glycerol, 5 mM EDTA, 20 mM DTT, 25 C, 20 min; 8% native PAGE in 0.5x TBE at 4 C.

For “CGGAACACCCAACAAATTACCAATCGAATAAACTAAAAAAGTCCTTTCAAACGAAAGGACTTTTTATTTTTAACAACAACGTCATTTTTTAAAGCTAGTTTCCGCAACTATCCACGCTAAAATATGAAAATCATTTTCATTTAATCGATATTGATAAAATCATTTTCTTGTGATATAGTCTGTTTGAAAACGCATACTTTACACTGAAACACAGTATAGAGGAGGAGTATCAGTGGGCAATTCTGTTATGGAAAAAATCAAAGGTGGGTTAG (double strand) [lmo2795-nanE operon upstream (promoter) region]”, the binding entry is listed as “binds”.

For the sequence “CTTTAATATCCTCTAAGCCAGCATTTTTGATTTTTTTCTGTAGCACCGTCGCGCCCATTGCACTGGATCCAAGCCCCGCATCACAAGCATAGGCGATTCTTTTAACATTTTTAAAATTAAAATCATCTACTGGAGCTTCGAAAACAGAGGAAATACTACTTTTTTTGCCTTTAAGACCTTCCATTTTCTTCGCTGCATCTTG (double strand) [unspecific control, region within the lmo2795-nanE operon]”, the binding entry is recorded as “no binding”.
